Measurements from paper PMC8965161, “Suppression of ATG4B by copper inhibits autophagy and involves in Mallory body formation” (Redox Biology, 2022).

Experiments:
ATG4B^C0-GFP = ATG4B^C0-GFP (UniProt Q9Y4P1); experiment: differential detergent fractionation and western blot under non-reduced condition, oligomer band quantified (self-oligomer formation in cells); design: reference not given here; details: HEK-293T cells, read off a plot
[1] = biological target: the molecule itself; experiment: non-reduced SDS-PAGE with Coomassie staining; ATG4B protein (4 ug) treated with designed concentrations of copper ions at 4 C for 30 min, stopped with 10 mM NEM; non-reduced condition

response (ATG4B^C0-GFP; Insoluble fraction, 1 mM copper ions (CuCl2) for 6 h) | response (ATG4B^C0-GFP; Insoluble fraction, no CuCl2) | response (ATG4B^C0-GFP; Soluble fraction, 1 mM copper ions (CuCl2) for 6 h) | response (ATG4B^C0-GFP; Soluble fraction, no CuCl2) | Molecule | binding result [1]
0.55 | 0.39 | 0.15 | 0.068 | ATG4B-GFP (from UniProt Q9Y4P1) C0 (all 14 cysteines to serines) | –
– | – | – | – | recombinant ATG4B protein without His-Tag (enzyme, human, UniProt Q9Y4P1 1-393, looked up, ATG4B, cysteine protease, human; source: recombinant, purified, without His-Tag) MDAATLTYDTLRFAEFEDFPETSEPVWILGRKYSIFTEKDEILSDVASRLWFTYRKNFPAIGGTGPTSDTGWGCMLRCGQMIFAQALVCRHLGRDWRWTQRKRQPDSYFSVLNAFIDRKDSYYSIHQIAQMGVGEGKSIGQWYGPNTVAQVLKKLAVFDTWSSLAVHIAMDNTVVMEEIRRLCRTSVPCAGATAFPADSDRHCNGFPAGAEVTNRPSPWRPLVLLIPLRLGLTDINEAYVETLKHCFMMPQSLGVIGGKPNSAHYFIGYVGEELIYLDPHTTQPAVEPTDGCFIPDESFHCQHPPCRMSIAELDPSIAVGFFCKTEDDFNDWCQQVKKLSLLGGALPMFELVELQPSHLACPDVLNLSLDSSDVERLERFFDSEDEDFEILSL | binds
